The target in assay [1] is T1, NY-ESO-1/LAGE-1 peptide on HLA-A*02:01 (human).
T1 peptide: SLLMWITQC
As to the kind of experiment: multimer staining.

In assay [2] the target is T2, NY-ESO-1 peptide on HLA-A*02:01 (human).
T2 peptide: RLLEFYLAM
As to the kind of experiment: cytokine release.

Assay [3] deals with T3, NY-ESO-1 peptide on HLA-A*02:01 (human).
T3 peptide: FTVSGNILTI
As to the kind of experiment: cytokine release.

B1: T11.8-10-17 (TCR, V domains shown)
Valpha: QKEVEQNSGPLSVPEGAIASLNCTYSDRGSQSFFWYRQYSGKSPELIMFIYSNGDKEDGRFTAQLNKASQYVSLLIRDSQPSDSATYLCAADDKIIFGKGTRLHILP
Vbeta: DAGVIQSPRHEVTEMGQEVTLRCKPISGHDYLFWYRQTMMRGLELLIYFNNNVPIDDSGMPEDRFSAKMPNASFSTLKIQPSEPRDSAVYFCASSRGGSGYTFGSGTRLTVV
As for B1, the binding result was “recognises” in assay [1], “no recognition” in assay [2] and “no recognition” in assay [3].

These data come from patent publication US20240417440A1 (published 2024).
